This is an account of results in the nanobody polyreactivity screen of Harvey et al. (2022).

This data set can be described thus: yeast display, Sf9 membrane polyspecificity reagent, FACS + sequencing; frameworks hold sequencing errors. The essentials:
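Using colony PCR, genes from sorted yeast display clones were amplified, then sequenced on MiSeq at 2 × 250 and filtered by CDR length. The clones had been stained with 10% biotinylated, detergent-solubilized Sf9 membrane reagent for 1 hour at 4 °C and sorted by FACS into low and high (top ~1%) gates on anti-HA and streptavidin fluorescence. Polyreactivity labels come from the gate of origin.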
Consider “QVQLVESGGGLVQAGGSLRLSCAASGSTFVNNAMGWYRQAPGKERELVAAIRSSGGSTYYADSVKGRFTISRDNAKNTVSLQMNSLKPEDTAVYYCNADRWKYELDYWGQGTQVTVSS”, for which the “polyreactivity (PSR sort gate)” value is recorded as “high polyreactivity”. The value for “QVQLVESGGGLVQAGGSLRLSCAASGNTFWPYAMGWYRQAPGKERELVAAISWRGSRTYYADSVKGRFTISRDNAKNTVYLQMNSLKPEDTAVYYCAADYKYVGSEYGYWGQGTQVNVSS” was “low polyreactivity”; that for “QVQLVESGGGLVNAGVSLLLSCAASGYIFVQYAMGWNRQAHVKERELVAAISKSGSSTYYADSVKGRFTISRDNAKNTVFLLINSLKPADSAVYYCAVVYTYVSGFTYGYWGQGTQVIVSS” was “low polyreactivity”. The entry for “QVQLVESWGGLVQAGGSLRLSCAASGSTFSPYAMGWYRQAPGKEREMVATINRGGGSTNYADSVKGRFTISRDNAKNTVYLQMNSRKPEDTAVYYCARVNAAVGYYYRYEYWGHGTQVTVSS” is “high polyreactivity”; for “QVQLVESGARLVQAGGSLRLSCAASGLIFYGNAMGWYRQAPGKERELVAAISRRGGRTYYADSVKGRFTISRDNAENTVYLQKNSLKPEDTAVYYCAAQYSYPYYKVTLYYWGQGTQVTVSS” it is “high polyreactivity”. The value for “QVQLVESGGGLVQAGGSLRLSCAASGSIFQFYAMGWYRQAPGKERELVAAITGDGSTDYADSVKGRFTISRDNAKNTVYLQMNSLKPEDTAVYYCAADLWRYLGWYYIYHYDYWGQGTQVTVSS” was “low polyreactivity”; that for “QVQLVESGGGLVQAGGSLRLSCAASGRIFAGYAMGWYRQAPGKERELVARISRGDDSTYYADSVKGRFTISRDNAKNTVYLQMNSLKPEDTAFYFCAADYPDVVYLEYDYWGQGTQVTVSS” was “low polyreactivity”; that for “QVQLVESGGGLVQAGGSLRLSCAASGRTFDLYAMGWYRQAPGKERELVARITNIDDSTYYADSVKGRFTISRDNAKNTVYLQMNSLKPEDTAVYYCNAVVTKYAKSRFLYYYWGQGTQVTVSS” was “high polyreactivity”. For “QVQIVESGGGLDQAGGSLRLSCAASGRTFVSNDMGRYRQAPGKERELVATISSGASTYYADSVKGRFTISRDNAKTTVYLQMISLKPEDNAVYYCAAEDLVFGGGYDYWGQGTQVNVSS”, the “polyreactivity (PSR sort gate)” value is “low polyreactivity”. The value for “QVQLVESGGGLVQAGGSLRLSCAASGLTFDGNAMGWYRQAPGKERELVATIRSGGGTNYADSVKGRFTISRDNAKNTVYLQMNSLKPEDTAVYYCNADYRSVYSPVQYPGEYYYWGQGTQVTVSS” was “low polyreactivity”; that for “QVQLVESGGGLVQAGGSLRLSCAASGRIFAYNTMGWYRQAPGKERELVAVITSGGSTNYADSVNGRFTISRDNAKNTVYLQMNSLKPEDTAVYYCAKRPYGRSGGSRYDYWGQGTQVTVSS” was “high polyreactivity”; that for “QVQLVESGGGLVQAGGSLRLSCAASGRIFNRNAMGWYRQAPGKERELVAAITRGGRTNYADSVKGRFTISRDNAQNTVYLHMNSLKPEDTAVYYCAAAYYGSHCRYDYWGQGTQVTVSS” was “high polyreactivity”. Regarding “QVQLVESGGGLVQAGGSLRLSCAASGFTFGYYAMGWYRQAPGKERELVAAITYDGDITYYADSVKGRFTISRDNAKNTVYLQMNSLKPEDTAVYYCNRDVLTFNYDYWGQGTQVTVSS”, the “polyreactivity (PSR sort gate)” value is “low polyreactivity”. Regarding “QVQRVESGGGLVQAGGSLRLSCAASGRPFDVYALGGYRQAPGKERELVATITYSGGITYYADSVKGRFTISRDNAKTTVYLQMNSLKPEDTAVYYPIGVGGDYDYWGQGTQVTVSS”, the “polyreactivity (PSR sort gate)” value is given as “low polyreactivity”. The entry for “QVQLVESGGGLVQAGGSLRLRCAAAGSIFKLNAMGWYRQAPGKERELVAVIYKSAGRTYYADSVKGRFTISRDNAKNTVYLQMNSLKTEDTAVYYCNAVSKLAVNLDYWGQGTQVTVSS” is “high polyreactivity”; for “QFQLVESGGGLVQAGGSLSLSCAASGSTFSFNARGSYRQAPGKERELVAAITSGGSTYYADSVKGRFTISRDNAKNTVYLQMNSLKPEDTAVYYCAAAWAYGFGTRRYYWGQGTQVTVSS” it is “high polyreactivity”. In the case of “QVQLVEAGGGLVQAGGSLRLSCASSGRIFPFNAMGRYRQAPGKEREFVAAIRLSGTRKYYADSVKGRFTISRDNAKNTVYLQMNSLKPEDTAVYYCAAKYSGHYYNYDYWGQGTQVTVSS”, the “polyreactivity (PSR sort gate)” value is recorded as “high polyreactivity”.

In the case of “QVQLVESGGGLVQAGGSLRLSCAASGFIFYYAMGWYRPAPGKERELVAGITESDGSTNYADSVKGRFTISRDNAKNTVYLQMNSLKPEDTAVYYCAKDASSLRFDYWGQGTQVTVSS”, the “polyreactivity (PSR sort gate)” value is “low polyreactivity”. As to “QVQLVESGGGLVQAGGSLRLSCADSGSIIGINAMGWYRQAPGKERELVAANNGGGSTYYADSVKGRFTISRDNAKNSVYLQMNSLKPEDTAVYYCAAEWGTSWYDYWGQGTQVTVSS”, the “polyreactivity (PSR sort gate)” value is “low polyreactivity”. Regarding “QVQLVESGGGLVQAGGSLRLSCAASGAIFGAITMGWYREAPGKERELVAAISKRGGSTYYADSVKGRFTSSRDNAKNTVYLQMNSLKPEDTAVYYCNATPRYLRQYVDPNWGYDYWGQGTQVTVSS”, the “polyreactivity (PSR sort gate)” value is “low polyreactivity”. The value for “QVQLVESGGGLVQAGGSLRLSCAASGSTFPYYAMGWYRQAPGKERELVAAITSGGSTYYADSVKGRFTISRDNAKNTVYLQMNSLKPEDTAVYYCAARYAPTLSVYRFYYWGQGTQVTVSS” was “high polyreactivity”; that for “QVLLVESGGGLVQAGGSLRLSCAASGFTFNRYDMVWYRQAPGTEREKVARITRGGSTKYADSVKGRFTISRDNAKNTVYLQMKSLKPEDTPVSYCAAGPVKRYVVQGNYWGQGTQVTVSS” was “high polyreactivity”; that for “QVQLVESGGGLVQAGGSLRLSCAASGRTFPRNGMGWYRQAPGTERELVAAISWSGGRTYYADSVKGRFTISRDNAKNTVYLQMNSLKPEDTAVYYCNALYFRKGGYWGQGTQVTVSS” was “high polyreactivity”. Take “QVQLVESGGGLVQAGGSLRLSSAASGSIFYGNAMGWYRQAPGKESELVAAISARGGSTNYADSVKGRFTISRDNAKITVYLQMNSLIPEDTAVYYCAAKVRVWYYRMDSWGQGTQVTVSS”: the “polyreactivity (PSR sort gate)” value is reported as “low polyreactivity”. The value for “QVQLVESGGGLVQAGGSLRLICAASGFIFRNYARGWYRQAPGKERELVAAITRSGTSTYYADSVKGRFTISRDNAKNTVYLQMNSLKPEDTAVYYCNAGWGLRLSWLGNYWGQGTQVTVSS” was “high polyreactivity”; that for “QVQLVESGGGLVQAGGSLRLSCAASGSIFWPNPMGGYRQAPGKERELVAGSTFSGGSTYADSVKGRFTISRDNAKNTVYLQMNSLKPEDTAVYYCAVVYYRDPRMDFWRQGTQVTVSS” was “high polyreactivity”. Regarding “QVQLVESGGGLVQAGGSLRLSCAASGLIFQSYAMGWYRQAPGKERELVAVITWSGTSTYADSVKGRFTISRVNAKNTVYLQMNSLKPEDTAVYYCAASKYGSFTNFGYWGQGTQVTVSS”, the “polyreactivity (PSR sort gate)” value is recorded as “low polyreactivity”. The value for “QVQLVESGGGLVQAGGSLRLSCAASGSIFSQYAMGWYRQAPGKERELVAAITSSGGRTYYADSVKGRFTISRDNAKNTVYLQMNSLKPEDTAVYYCAARPYSKRHEYWGQGTQVTVSS” was “high polyreactivity”.

As for “QVQLVESGGGLVQAGGSLRLSCAASGRIFTGNAMGWNRQAPGKERELVAAISASGSSTYYADSVKGRFTISRDNAKNTVYLQMNRLKPDDTAVYYCAADGWYGYYYWGQGTQVTVSS”, the “polyreactivity (PSR sort gate)” value is on record as “high polyreactivity”. As to “QVQLVESGGGLVQAGGSLRLSCAASGFTLPLYAMGWYRQAPGKERELVAAISSGGGRTYYADSVKGRFTISRDNAKNTVYLQMNSLKPEDTAVYYCNVDRWWLGWYKFNYWGQGTQVTVSS”, the “polyreactivity (PSR sort gate)” value was “high polyreactivity”. The value for “QGQLVESGGGLVQAGGSLRLSCAASGLTFGSYTMGWYRQAPGKERELVAAITSDGSTNYADSVKGRFTISRDNAKNTVYLQMNSLKPEDTAVYYCAATRVSYRQFKAIGYHYWGQGTQVTVSS” was “high polyreactivity”; that for “QVQLVESGGGLVQAGGSLRLSCAASGRIFLYNAMGWYRQAPGKERELVASISSGDTTNYADSVKGRFTISRDNAKKTVYLQMNSLKPEDTAVYYCAADGQYSVIVKYDSWGQGTQVTVSS” was “low polyreactivity”. The entry for “QVQLVESGGGLVQAGGSLRLSCAASGLIFTKAMGWYRQAPGKEREFVAAINSSGGSTYADSVKGRFTISRDNAKNTVYLQMNSLKPEDTAVYYCAARVNYLYEYWGQGTQVTVSS” is “low polyreactivity”; for “QFQLVESGGGLVQAGGSLRLSCAATGSIFHYYAMGWYRHAPGKERELVAAINSSGGSRSYYADSVKGRFTISRDNAKNTVFLQMNSLKPVDTAVYYCAAEYRVVWRAYDYWGKGTQVTVSS” it is “low polyreactivity”. The entry for “QVQLVESGGGLVQAGGSLRLSCAASGITFYYYAMGWYRQAPGKERELVAAISVSGGSTYYADSVKGRFTISRDNAKNTVYLQMNSLKPEDTAVYYCAAADLLSYTYPEYDYWGQGTQVTVSS” is “low polyreactivity”; for “QVQLVESGGGLVQAGGSLRLSCAASGSTFRSYGMGWYRQAPRKERELVAGISVSGGRTSYADSVKGRFTISRDNAKNTVYLQMNSLKPEDTAVYYCAARRSKVGYHRDYYWGQGTQVTVSS” it is “high polyreactivity”; for “QVKLVESGAGLVHAGGSLRLSCAASGFIFFYYAMGRYRQAPGKERYLVATISANGGNTYYADSVKGRFTISRDNAKNTVYLQMNRLKPEDTAVYYCARYTWYLRDWQWYYWGDEDYWGQGTQVTVSS” it is “high polyreactivity”. For “QVQLVESGGGLVQAGGSRLSCAASGLIFIWYTMGWYRQAPGKERELVAAIDSSGGNTYYADSVKGRFTISRDNAKNPVYLQMNSLKPAETAVYYCATDVGHGAGNLMGYWGQGTQVTVSS”, the “polyreactivity (PSR sort gate)” value is recorded as “low polyreactivity”.

For “QVQLVESGGGLVQAGGSLRLSCAASGSTFGFYAMGWYRPAPGKERELVAAISWSTTSTYYADSVKGRFTISRDNAKNTVYLQMNSLKPEDTAVYYCAAEEWYLWYYYWGQGTQVTVSS”, the “polyreactivity (PSR sort gate)” value is reported as “high polyreactivity”. The entry for “QVQLVESGGGLVQEGGSLRLTCAASGIIFTINAMGWYRQAPGKERELVAAIYWGTGTTYYADSVKGRFTISRDNAKNTVYLQMNSLKPEDTAVYYCAADGYDTYGYWGQGTQVTVSS” is “low polyreactivity”. The entry for “QVQLVESGGGLVQAGGSLRLSCAASGRIFLSYAMGWYRQAPGNEREFVAAITSSGGSTSYADSVKGRFTISRDNAKNTVYLQMNSLKPEDTAVYYCNDRAYIFGQMKYDYWGQGTQVTVSS” is “low polyreactivity”.
